Assay results published in the supplement of paper PMC10567573.
± gives the standard deviation.

Assay: protein stability index of a GFP-peptide fusion (GPS, HEK-293T) (PSI 1-6); higher = more stable
[1] = treatment: DMSO, c terminus: a fixed tail appended
[2] = treatment: MLN4924 1 uM, 8 h, c terminus: a fixed tail appended
[3] = treatment: DMSO, c terminus: native
[4] = treatment: MLN4924 1 uM, 8 h, c terminus: native
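Also: 24-mer peptide tiles fused after GFP, lentivirally expressed, FACS-sorted into six equal bins by GFP/DsRed ratio, decoded by Illumina sequencing, PSI is the read-weighted mean bin number.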

| Sequence | protein stability index [1] | protein stability index [2] | protein stability index [3] | protein stability index [4] |
| --- | --- | --- | --- | --- |
| REFKVTDARDGQSRTVRQFQFTDW [PTPRD] | 3.16 ± 0.34 | 3.11 ± 0.58 |  |  |
| REHAKARVDHGAEIITQSPGRSSV [MAP2] | 4.75 ± 0.11 | 4.89 ± 0.12 |  |  |
| REHELLCRADHGLLLERAAAGSPR [ISL2] | 3.82 ± 0.31 | 3.89 ± 0.062 |  |  |
| REKIMKLPLPESLKAYLTYFRDK [PCMTD1] |  |  | 2.05 ± 0.36 | 2.59 ± 0.34 |
| RELESREAELRRRDTFYKEQLERI [CHCHD6] | 4.56 ± 0.12 | 4.87 ± 0.39 |  |  |
| REMVMYSITVAFWLLNSWLWFRR [MFF] |  |  | 2.27 ± 0.96 | 2.48 ± 0.86 |
| RGEAEAFAIGARARAEAEQMAKKA [FLOT1] | 5.33 ± 0.27 | 5.17 ± 0.26 |  |  |
| RGNRLKTTSWGLLSLGALVALCWQ [SCNN1D] | 2.3 ± 0.26 | 2.16 ± 0.24 |  |  |
| RGPVVPKHSTFGQSLTQRLHALKL [GNAS] | 2.4 ± 0.29 | 2.36 ± 0.28 |  |  |
| RHLNDDDVTGSVKSERRNLLEDDS [VAMP4] | 5.28 ± 0.2 | 5.42 ± 0.19 |  |  |
| RHPPKVGDDSDLSEGFESDSSHDS [SMG5] | 5.46 ± 0.18 | 5.51 ± 0.21 |  |  |
| RHRSADVLGVADGVGGWRDYGVDP [PPTC7] | 4.14 ± 0.39 | 4.07 ± 0.48 |  |  |
| RIDSQFLIGDTLLVAPVLEPGKQE [MYORG] | 3.77 ± 0.18 | 3.81 ± 0.26 |  |  |
| RIFAHKIYLSTSSSKFYDLFLMDL [RHOBTB2] | 2.97 ± 0.31 | 2.86 ± 0.66 |  |  |
| RIIPNFYPPLEGHVRQGVFSSLNH [INTS3] | 2.28 ± 0.025 | 2.3 ± 0.16 |  |  |
| RILDELTLCKADLEAQVESLKEEL [KRT36] | 3.76 ± 0.35 | 3.68 ± 0.54 |  |  |
| RKDMIAEKLAPSEITEELPSSQLM [ZNF396] | 4.98 ± 0.16 | 4.86 ± 0.27 |  |  |
| RKFYVHIKPAPARAPACSPEAAAA [FCHO1] | 2.66 ± 0.3 | 2.82 ± 0.35 |  |  |
| RKISVNAKDEDQWTALHFAAQNGD [RIPK4] | 4.19 ± 0.26 | 4.59 ± 0.53 |  |  |
| RMAAPRAEALFDFTGNSKLELNFK [NCF4] | 3.33 ± 0.2 | 3.46 ± 0.28 |  |  |
| RMRYLNGLDPEPLPLMDLCRRSVR [SPSB1] | 3.21 ± 0.27 | 3.36 ± 0.1 |  |  |
| RNGAVRRFGQTIQSFTLRGDHRSP [NET1] | 3.36 ± 0.31 | 3.49 ± 0.13 |  |  |
| RNIMNLIDIVAIIPYFITLGTELA [KCNA3] | 2.84 ± 0.4 | 2.97 ± 0.21 |  |  |

| Sequence | protein stability index [1] | protein stability index [2] | protein stability index [3] | protein stability index [4] |
| --- | --- | --- | --- | --- |
| RNRAITARRQHLKSVMLQIAATEL [TNNI2] | 2.4 ± 0.25 | 2.72 ± 0.33 |  |  |
| RPFDCPVCNKKFKMKHHLTEHMKT [ZBTB22] | 2.77 ± 0.23 | 3.47 ± 0.53 |  |  |
| RPGQAPIGNPPVGPIGGMMPPQPG [ZNF207] | 4.14 ± 0.22 | 4.28 ± 0.38 |  |  |
| RPIGEFRSNADYQYQLLRCNVDLL [CNOT7] | 2.5 ± 0.2 | 2.47 ± 0.16 |  |  |
| RPSEIKDYSPYFKTIEDLRNKIIA [KRT16] | 2.28 ± 0.18 | 2.41 ± 0.22 |  |  |
| RPSMASELMPSSRLWSLSYTKLPS [SLC25A39] | 2.99 ± 0.19 | 2.92 ± 0.26 |  |  |
| RRAGAACTLRQKLIFSPCSDCEEE [WEE1] | 4.2 ± 0.25 | 4.39 ± 0.15 |  |  |
| RRENYGVPPRRATISSWRNDRMST [RBMY1A1] | 3.31 ± 0.28 | 3.43 ± 0.068 |  |  |
| RRKGEMGLSAEDGVWAVIISHQQC [TRIM15] | 2.36 ± 0.49 | 2.16 ± 0.21 |  |  |
| RRMFSSLFQFSNCSQGQQLATFSS [CCDC3] | 2.31 ± 0.2 | 2.34 ± 0.98 |  |  |
| RSGGHAPRVRELLLDALSPEQLVL [ESR2] | 2.82 ± 0.14 | 2.91 ± 0.34 |  |  |
| RTADEATNTGPAGSSASTSPAPLD [DYRK1B] | 5.5 ± 0.28 | 5.34 ± 0.21 |  |  |
| RTDYSGRGELSARQMHLARFLRML [RAD51] | 2.18 ± 0.42 | 2.38 ± 0.26 |  |  |
| RTGSLFKIWLVVPSLLELAWEKLL [KLHDC10] | 2.84 ± 0.27 | 2.78 ± 0.31 |  |  |
| RTHSVIKEETNHSEMAEDLCKIGS [IKZF1] | 4.9 ± 0.25 | 4.85 ± 0.46 |  |  |
| RTPPKSPGDPSKDRAAKRLSLESE [TPPP] | 5.3 ± 0.14 | 4.99 ± 0.25 |  |  |
| RVQAAAFGPGQTLLSSVHVLDLEA [ALKBH7] | 3.02 ± 0.42 | 3.3 ± 0.32 |  |  |
| RVRSLETENRRLESKIREHLEKKG [KRT18] | 4.44 ± 0.26 | 4.99 ± 0.18 |  |  |
| RVWLKRDSGQYWPSVYHAMPSPCS [WDFY2] | 2.26 ± 0.27 | 2.33 ± 0.46 |  |  |
| RYGQLIEINSHSLFSKWFSESGKL [TRIP13] | 2.27 ± 0.49 | 2.49 ± 0.83 |  |  |
| RYIHSMSLVHMDIKPSNIFISRTS [WEE1] | 1.9 ± 0.47 | 2.46 ± 0.31 |  |  |
| RYNDFVVFQEMLLHKFPYRMVPAL [SNX8] | 2.51 ± 0.41 | 2.22 ± 0.27 |  |  |
| RYNFTPDPDFKDLGALKPLPACEF [NETO1] | 2.87 ± 0.19 | 2.93 ± 0.33 |  |  |

| Sequence | protein stability index [1] | protein stability index [2] | protein stability index [3] | protein stability index [4] |
| --- | --- | --- | --- | --- |
| SAAPSNDQDGEYCPEVKLKTTGLE [SRPK2] | 5.28 ± 0.28 | 5.26 ± 0.26 |  |  |
| SAEELRKARSNSTLSKSEYMVIEE [KCNA3] | 4.87 ± 0.17 | 4.93 ± 0.16 |  |  |
| SALGPNVTKITLESFLAWKKRKRQ [ZC3H15] | 2.92 ± 0.14 | 3.14 ± 0.28 |  |  |
| SAVADKLDNSRSILKRRYYRQHCT [CTDNEP1] | 3.24 ± 0.33 | 3.7 ± 0.49 |  |  |
| SAVTSVRILQDEQYLMASDMAGKI [DCAF4] | 3.33 ± 0.18 | 3.29 ± 0.27 |  |  |
| SCKLVRDKITGQSLGYGFVNYSDP [ELAVL3] | 2.4 ± 0.19 | 2.5 ± 0.37 |  |  |
| SDEYKIRRERNNIAVRKSRDKAKM [CEBPB] | 4.75 ± 0.27 | 5 ± 0.17 |  |  |
| SDGVYAIVATLLILDICEDNVPDP [TMEM175] | 2.86 ± 0.39 | 2.84 ± 0.51 |  |  |
| SDGWWRGSYNGQIGWFPSNYVLEE [NCK2] | 2.89 ± 0.35 | 2.73 ± 0.12 |  |  |
| SDSLLTGMAFFKMREMFFEDHIDD [CNOT7] | 2.58 ± 0.054 | 3.3 ± 0.48 |  |  |
| SEEKLALDNNASASGNATQTESGS [C10orf62] | 5.55 ± 0.15 | 5.6 ± 0.19 |  |  |
| SENARLVLQIDNAKLAADDFRTKY [KRT36] | 4.03 ± 0.2 | 4 ± 0.24 |  |  |
| SESRGSSGRVKRERDREREPEAAS [USP39] | 5.53 ± 0.24 | 5.59 ± 0.19 |  |  |
| SFQLEISGFLKEMACPYSVLISGD [FAM98B] | 2.56 ± 1.3 | 2.11 ± 0.74 |  |  |
| SFQLFVEGYKDADYWLRRFEAEPL [PI4K2A] | 1.92 ± 0.41 | 2.35 ± 0.25 |  |  |
| SGACGAFVHGLEDEMYEVRIAAVE [INTS4] | 2.71 ± 0.46 | 2.73 ± 0.5 |  |  |
| SGAGRRKNATRETTSTLKAWLNEH [IRX6] | 3.55 ± 0.28 | 3.58 ± 0.23 |  |  |
| SGKVSSSSSSLGNKLQTLSPSHKG [ZC2HC1A] | 4.31 ± 0.14 | 4.26 ± 0.091 |  |  |
| SGLIYLTNHIAPHARNGLSLKEEH [IKZF1] | 2.58 ± 0.37 | 2.71 ± 0.19 |  |  |
| SHLSDTGISALVEIPKNCVVAAVG [WDR41] | 3.09 ± 0.31 | 3.22 ± 0.25 |  |  |
| SIEVGGSVNFDGETIEGAPPLWAA [FEM1C] | 3.92 ± 0.28 | 4.12 ± 0.34 |  |  |
| SILRELDTSMDGTEPPQNPVTPLG [SERTAD3] | 4.35 ± 0.13 | 4.38 ± 0.18 |  |  |
| SIPLTPGDTPIRKKEELLFDDGDD [FBF1] | 5.51 ± 0.54 | 5.62 ± 0.17 |  |  |

| Sequence | protein stability index [1] | protein stability index [2] | protein stability index [3] | protein stability index [4] |
| --- | --- | --- | --- | --- |
| SKAVFLWNMDKYTMIRKLEGHHHD [WSB1] | 2.24 ± 0.16 | 2.24 ± 0.33 |  |  |
| SKCLVDDGTGRMPTLKKCEDVARP [GALNT9] | 4.57 ± 0.16 | 4.54 ± 0.21 |  |  |
| SKDLYLISQMDSDQFIPIWTVANM [LARP4] | 2.51 ± 0.6 | 1.92 ± 0.36 |  |  |
| SKDWEEVVVESMEQDRIPEVHVPP [MIA2] | 5.09 ± 0.25 | 4.87 ± 0.26 |  |  |
| SKEDKDLDSSEGSSQEDEDLGLSE [SPANXN3] | 5.57 ± 0.33 | 5.62 ± 0.28 |  |  |
| SKEKDTQNQNITLDCEGTTNKMKS [KMT2E] | 5.29 ± 0.058 | 5.28 ± 0.45 |  |  |
| SKGWGRNYASIIRRDCMWSGFSAR [MYCL] | 2.35 ± 0.39 | 2.38 ± 0.31 |  |  |
| SKQRKDFEGMAFLETEQGKPFVSV [GMCL1] | 3.42 ± 0.14 | 3.27 ± 0.16 |  |  |
| SKSLCHDEIENLLDSDHRELIGDY [CDC25B] | 4.13 ± 0.26 | 4.31 ± 0.27 |  |  |
| SLCYLQLTRQLVSCSSDGGIAVWN [WDFY1] | 2.87 ± 0.57 | 2.81 ± 0.46 |  |  |
| SLFIALITGAYDTIKHPGGAGAEE [MCOLN1] | 2.45 ± 0.58 | 2.2 ± 0.44 |  |  |
| SLGSESEEEEEFYDADEETQMIK [SLC22A15] |  |  | 5.01 ± 0.35 | 4.92 ± 0.37 |
| SLGYKEIRKGESRSEALAVDGAGK [CHGA] | 5.03 ± 0.52 | 4.95 ± 0.31 |  |  |
| SLKEAEFYDKQLKVLLSGATFLVT [ZFYVE21] | 2.27 ± 0.52 | 2.55 ± 0.19 |  |  |
| SLQDASRGDPAHAGLAELGHRLAQ [PBXIP1] | 4.33 ± 0.34 | 4.38 ± 0.27 |  |  |
| SLWERLEFVNGWYILLVTSDVLTI [MCOLN1] | 3.5 ± 0.68 | 3.08 ± 0.45 |  |  |
| SMSGGRFRCPTCRHEVIMDRHGVY [TRIM63] | 2.24 ± 0.11 | 2.39 ± 0.35 |  |  |
| SNCISGVCSVRGGEGRSRGSANDY [KRT71] | 3.93 ± 0.36 | 4.23 ± 0.084 |  |  |
| SNLETIFRIIDSDHSGFISLDEFR [PPEF2] | 2.52 ± 0.24 | 2.73 ± 0.36 |  |  |
| SPDLEWHAACLKCAECSQYLDETC [ISL2] | 4.04 ± 0.19 | 4.03 ± 0.39 |  |  |
